# Experimental data: patent publication US20250154277A1 (CONCEPT TO MEDICINE BIOTECH, published 2025)
# Where a chain is given by its changes, count along the chain named.
# T1: human 5T4-His protein (human, UniProt Q13641 32-355)
# T1 construct: also called recombinant 5T4 protein (human 5T4-his tag); human 5T4 protein; not shown: His tag
# T1 sequence (looked up): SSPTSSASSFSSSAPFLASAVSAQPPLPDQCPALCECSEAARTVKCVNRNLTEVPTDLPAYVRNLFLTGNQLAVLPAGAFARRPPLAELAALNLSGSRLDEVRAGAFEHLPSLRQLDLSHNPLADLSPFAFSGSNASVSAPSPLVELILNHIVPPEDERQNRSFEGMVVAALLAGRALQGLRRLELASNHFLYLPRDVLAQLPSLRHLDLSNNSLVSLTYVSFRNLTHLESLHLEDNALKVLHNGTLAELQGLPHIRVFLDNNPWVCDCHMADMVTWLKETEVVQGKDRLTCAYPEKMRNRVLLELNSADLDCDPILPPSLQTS
# B1: Hu14G12-1 (antibody, V domains shown)
# VH: EVQLVQSGAEVKKPGATVKISCKVSGYAFSSSWMNWVQQAPGKGLEWMGRIYREDGHTNYNGKFKGRVTITADTSTDTAYMELSSLRSEDTAVYYCATGGAMDYWGQGTLVTVSS
# VL: DIQMTQSPSSLSASVGDRVTITCRASQDISNYLNWYQQKPGKAPKLLIYYTSRLHSGVPSRFSGSGSGTDFTFTISSLQPEDIATYYCQQDNTLPWTFGGGTKLEIK
# notes: humanized
# B2: Hu14G12-12 (antibody, V domains shown)
# VH: B1 VH with Q38K, M48I, V68A, D77T, Y95F, T98N
# VL: B1 VL with T22S, A43T, P44V, F71Y, Y87F
# notes: humanized
# B3: Hu14G12-4 (antibody, V domains shown)
# VH: B1 VH
# VL: B1 VL with T22S, A43T, P44V, F71Y, Y87F
# notes: humanized
# B4: Hu14G12-15 (antibody, V domains shown)
# VH: B1 VH with V24A, Q38K, M48I, V68A, D77T, T91S, Y95F, T98N
# VL: B1 VL with T22S, P44V, Y87F
# notes: humanized
# B5: Hu14G12-18 (antibody, V domains shown)
# VH: QVQLVQSGAEVKKPGSSVKVSCKASGGTFSSSWMNWVKQAPGQGLEWIGRIYREDGHTNYNGKFKGKATLTADKSTSTAYMELSSLRSEDTAVYFCANGGAMDYWGQGTTVTVSS
# VL: B1 VL with A43V, F71Y, F73L, I83V, Y87F
# notes: humanized
# B6: Hu14G12-9 (antibody, V domains shown)
# VH: B1 VH with Q38K, M48I, V68A, D77T, Y95F, T98N
# VL: B1 VL
# notes: humanized
# B7: Hu14G12-16 (antibody, V domains shown)
# VH: B1 VH with V24A, Q38K, M48I, V68A, D77T, T91S, Y95F, T98N
# VL: B1 VL with T22S, A43T, P44V, F71Y, Y87F
# notes: humanized
# B8: Hu14G12-7 (antibody, V domains shown)
# VH: B1 VH with M48I, Y95F, T98N
# VL: B1 VL with T22S, P44V, Y87F
# notes: humanized
# B9: Hu14G12-8 (antibody, V domains shown)
# VH: B1 VH with M48I, Y95F, T98N
# VL: B1 VL with T22S, A43T, P44V, F71Y, Y87F
# notes: humanized
# B10: Hu14G12-5 (antibody, V domains shown)
# VH: B1 VH with M48I, Y95F, T98N
# VL: B1 VL
# notes: humanized
# B11: Hu14G12-11 (antibody, V domains shown)
# VH: B1 VH with Q38K, M48I, V68A, D77T, Y95F, T98N
# VL: B1 VL with T22S, P44V, Y87F
# notes: humanized
# B12: Hu14G12-3 (antibody, V domains shown)
# VH: B1 VH
# VL: B1 VL with T22S, P44V, Y87F
# notes: humanized
# B13: Hu14G12-13 (antibody, V domains shown)
# VH: B1 VH with V24A, Q38K, M48I, V68A, D77T, T91S, Y95F, T98N
# VL: B1 VL
# notes: humanized
# B14: 393E9_hVH2_hVL1 (antibody, V domains shown)
# VH: EVQLVESGGGLIQPGGSLRLSCAASGFTFTDYYMSWVRQPPGKGLEWVGFIRNKGNGYTTENSASVKGRFTISRDNSKSTLYLQMNSLRAEDTAVYYCARYRGNPHYAMDYWGQGTLVTVSS
# VL: DIVLTQSPDSLAVSLGERATINCRASESVEFYGTSFLQWYQQKPGQPPKLLIYGASNVESGVPDRFSGSGSGTDFTLTISSLQAEDIAVYFCQQSRKVPSTFGGGTKVEIK
# notes: humanized
# B15: 393E9_hVH3_hVL1 (antibody, V domains shown)
# VH: B14 VH with E1Q, L11V, I12V, P40A
# VL: B14 VL
# notes: humanized
# B16: 393E9_hVH1_hVL5 (antibody, V domains shown)
# VH: B14 VH with I12V, P40A
# VL: EIVLTQSPGTLSLSPGERATLSCRASESVEFYGTSFLQWYQQKPGQAPRLLIYGASNVESGIPDRFSGSGSGTDFTLTISRLEPEDIAVYFCQQSRKVPSTFGGGTKVEIK
# notes: humanized
# B17: 393E9_hVH1_hVL1 (antibody, V domains shown)
# VH: B14 VH with I12V, P40A
# VL: B14 VL
# notes: humanized
# B18: 393E9_hVH1_hVL3 (antibody, V domains shown)
# VH: B14 VH with I12V, P40A
# VL: DIQLTQSPSSLSASVGDRVTITCRASESVEFYGTSFLQWYQQKPGKAPKLLIYGASNVESGVPSRFSGSGSGTDFTLTISSLQPEDIATYFCQQSRKVPSTFGGGTKVEIK
# notes: humanized
# B19: 393E9_hVH1_hVL2 (antibody, V domains shown)
# VH: B14 VH with I12V, P40A
# VL: B16 VL with G9A, L13V, D64A, D74E, R81S, E83Q, P84S
# notes: humanized
# B20: 393E9_hVH6_hVL4 (antibody, V domains shown)
# VH: B14 VH with I12V, P40A, S77A, T80S
# VL: DIVLTQSPLSLPVTPGEPASISCRASESVEFYGTSFLQWYLQKPGQSPQLLIYGASNVESGVPDRFSGSGSGTDFTLKISRVEAEDIGVYFCQQSRKVPSTFGGGTKVEIK
# notes: humanized
# B21: 393E9_hVH4_hVL1 (antibody, V domains shown)
# VH: B14 VH with I12V, P40A, T80S, R89K, A90T
# VL: B14 VL
# notes: humanized
# B22: 393E9_hVH4_hVL4 (antibody, V domains shown)
# VH: B14 VH with I12V, P40A, T80S, R89K, A90T
# VL: B20 VL
# notes: humanized
# B23: 393E9_hVH5_hVL2 (antibody, V domains shown)
# VH: B14 VH with I12V, G16R, A23T, P40A, T80I, R89K, A90T
# VL: B16 VL with G9A, L13V, D64A, D74E, R81S, E83Q, P84S
# notes: humanized
# B24: 393E9_hVH3_hVL2 (antibody, V domains shown)
# VH: B14 VH with E1Q, L11V, I12V, P40A
# VL: B16 VL with G9A, L13V, D64A, D74E, R81S, E83Q, P84S
# notes: humanized
# B25: 393E9_hVH6_hVL1 (antibody, V domains shown)
# VH: B14 VH with I12V, P40A, S77A, T80S
# VL: B14 VL
# notes: humanized
# B26: 393E9_hVH5_hVL1 (antibody, V domains shown)
# VH: B14 VH with I12V, G16R, A23T, P40A, T80I, R89K, A90T
# VL: B14 VL
# notes: humanized
# Molecular target: T1, human 5T4-His protein
# Assay: ELISA, coated 5T4-His
# Protocol: To evaluate the binding activity of 14G12 humanized antibodies to human 5T4, the 14G12 chimeric antibody along with 14G12 humanized mAbs were subjected to ELISA test.
# Briefly, microtiter plates were coated with human 5T4-His protein at 1 μg/ml in PBS, 100 μl/well at 4° C. overnight, then blocked with […]. Serial dilutions of antibodies were added to each well and incubated for 1 hour at 37° C. The plates were washed with PBS/Tween and then incubated with Goat Anti-Human IgG-HRP for 30 mins at 37° C. After washing, the plates were developed with TMB substrate and analyzed by spectrophotometer at OD 450 nm. As shown in FIG. 10 and Table 6, most of the humanized antibodies bound to human 5T4 at high activity.
row,EC50,Binder
1,0.021 µg/mL,B1
2,0.019 µg/mL,B2
3,0.019 µg/mL,B3
4,0.014 µg/mL,B4
5,0.31 µg/mL,B5
6,0.012 µg/mL,B6
7,0.017 µg/mL,B7
8,0.015 µg/mL,B8
9,0.015 µg/mL,B9
10,0.014 µg/mL,B10
11,0.015 µg/mL,B11
12,0.026 µg/mL,B12
13,0.018 µg/mL,B13

# Molecular target: T1, human 5T4-His protein
# Assay: SPR Biacore, Protein A capture
# Protocol: (§1) The binding of the 393E9 humanized antibodies to recombinant 5T4 protein (human 5T4-his tag) was tested with Biacore using a capture method. The mAbs were captured using Protein A chip. A serial dilution of human 5T4-his tag protein was injected over captured antibody for 3 mins at a flow rate of 30 μl/min. The antigen was allowed to dissociate for 280-800 s. All the experiments were carried out on a Biacore T200. Data analysis was carried out using the Biacore T200 evaluation software.
Kd,koff,kon,Binder
547 pM,0.000104 s⁻¹,190000 M⁻¹ s⁻¹,B14
506 pM,0.000108 s⁻¹,213000 M⁻¹ s⁻¹,B15
515 pM,0.000112 s⁻¹,217000 M⁻¹ s⁻¹,B16

# Molecular target: T1, human 5T4-His protein
# Assay: ELISA, coated 5T4-His
# Remark: another data set of the same source
# Protocol: To evaluate the binding activity of 393E9 humanized antibodies to human 5T4, the 393E9 chimeric antibody (393E9-C) along with 393E9 humanized mAbs were subjected to ELISA test.
# Briefly, microtiter plates were coated with human 5T4-His protein at 1 μg/ml in PBS, 100 μl/well at 4° C. overnight, then blocked with 150 μl/well of 1% BSA. 4-fold dilutions of antibodies starting from 20 nM were added to each well and incubated for 1 hour at 37° C. The plates were washed with PBS/Tween and then incubated with Goat Anti-Human IgG-HRP for 30 mins at 37° C. After washing, the plates were developed with TMB substrate and analyzed by spectrophotometer at OD 450 nm. As shown in FIG. 12 and Table 9, most of the humanized antibodies bound to human 5T4 with high activity.
row,EC50,Binder
1,180 pM,B17
2,85 pM,B18
3,160 pM,B19
4,140 pM,B20
5,130 pM,B21
6,170 pM,B14
7,160 pM,B15
8,160 pM,B22
9,270 pM,B23
10,200 pM,B24
11,130 pM,B16
12,110 pM,B25
13,160 pM,B26

# Molecular target: T1, human 5T4-His protein
# Assay: SPR Biacore, Protein A capture
# Remark: another data set of the same source
# Protocol: as §1, with “14G12” for “393E9”, “Serial” for “A serial”, “120 s-180 s” for “3 mins”, “360 s-1000” for “280-800”
Kd,koff,kon,Binder
42700 pM,0.0121 s⁻¹,283000 M⁻¹ s⁻¹,B1
2390 pM,0.000655 s⁻¹,274000 M⁻¹ s⁻¹,B2
12500 pM,0.00267 s⁻¹,214000 M⁻¹ s⁻¹,B3
3190 pM,0.000837 s⁻¹,262000 M⁻¹ s⁻¹,B4
4550 pM,0.00178 s⁻¹,392000 M⁻¹ s⁻¹,B5
5310 pM,0.00107 s⁻¹,202000 M⁻¹ s⁻¹,B6
1850 pM,0.000499 s⁻¹,269000 M⁻¹ s⁻¹,B7
2520 pM,0.000846 s⁻¹,336000 M⁻¹ s⁻¹,B8
1360 pM,0.000464 s⁻¹,340000 M⁻¹ s⁻¹,B9
5880 pM,0.00146 s⁻¹,248000 M⁻¹ s⁻¹,B10
2170 pM,0.000523 s⁻¹,241000 M⁻¹ s⁻¹,B11
27500 pM,0.0055 s⁻¹,200000 M⁻¹ s⁻¹,B12
6120 pM,0.00121 s⁻¹,198000 M⁻¹ s⁻¹,B13
